The target of this experiment is GluN2B-containing NMDA receptor (GluN1a/GluN2B). Briefly: cell-based or functional assay.

A value given as a limit tells only on which side of the number the result lay.

B1: Con-G-like APP (cAPP) (peptide)
peptide: ADTDYADGSEDKVVE
In turn, B1 had an inhibition of receptor currents, two-electrode voltage clamp, Xenopus oocytes of less than 30%.

Values taken from patent US20220324922A1.
